Assays:
Test in all cases: competitive ELISA against the biotin-labeled SEQ ID NO: 2 peptide
[1] = biological target: T1, MMP13-undigested human type II collagen (human, UniProt P02458 182-1241, limits assumed)
T1 construct: Triple helix of three chains; also called native type II collagen; non-digested collagen (type II)
Method: (§1) To 10 μg/10 μl of a solution of human type I, type II, or type III collagen (Chondrex), 10 μl of 2 × enzyme reaction buffer (50 mM Tris buffer, pH 7.6, containing 0.3 M NaCl, 10 mM CaCl₂, and 0.005% Brij35) was added for neutralization. To the solution, 0.2 μg of activated human MMP13 (human Pro-MMP13 (Calbiochem), activated by incubation with 1 mM APMA at 37° C. for 2 hours), and the mixture was allowed to react overnight at 37° C. Subsequently, stop solution (EDTA, final concentration 5 mM) was added to prepare the natural type neoepitope solution.
(§2) To a 384-well microtiter plate (Nunc), 35 μl of Tris buffer (50 mM Tris-HCl, pH7.5) containing 0.35 μg of anti-mouse IgG-Fc antibody (Jackson Immuno Research) was added and incubated overnight at 4° C. for adsorption. Each well was washed once with 90 μl of washing solution (physiological saline containing 0.01% Tween20), and then 0.1 ml of Block Ace (Dainippon pharmaceuticals) was added. The plate was allowed to stand for 2 hours at room temperature for blocking (an anti-mouse IgG antibody-solid-phased plate). After each well was washed once with 90 μl of the washing solution, 10 μl of buffer A containing 6.4-250 nM of the natural type neoepitope solution was mixed with 10 μl of buffer A containing 1 ng/ml of the biotin-labeled neoepitope peptide (SEQ ID NO: 2) and 200 ng/ml of Streptavidin-HRP, and 10 μl of buffer A containing 15 ng/ml of the anti-neoepitope antibody (20A10). Then the mixture was allowed to react at 4° C. for 16 hours.
(§3) Subsequently, each well was washed three times with 90 μl of the washing solution, and 25 μl of TMB-Substrate Chromogen (DAKO) was added and incubated for 30 minutes at room temperature for color development, followed by the addition of 25 μl of 0.05 M sulfuric acid to terminate the reaction. Then, the absorbance at 450 nm was measured.

[2] = biological target: T2, MMP13-undigested human type I collagen (human, UniProt P02452 162-1218; P08123 80-1119)
T2 construct: The chain composition comes from general knowledge; also called non-digested collagen (type I)
Method: as §1, §2, §3

[3] = biological target: T3, MMP13-undigested human type III collagen (human, UniProt P02461 154-1221)
T3 construct: also called non-digested collagen (type III)
T3 sequence (looked up): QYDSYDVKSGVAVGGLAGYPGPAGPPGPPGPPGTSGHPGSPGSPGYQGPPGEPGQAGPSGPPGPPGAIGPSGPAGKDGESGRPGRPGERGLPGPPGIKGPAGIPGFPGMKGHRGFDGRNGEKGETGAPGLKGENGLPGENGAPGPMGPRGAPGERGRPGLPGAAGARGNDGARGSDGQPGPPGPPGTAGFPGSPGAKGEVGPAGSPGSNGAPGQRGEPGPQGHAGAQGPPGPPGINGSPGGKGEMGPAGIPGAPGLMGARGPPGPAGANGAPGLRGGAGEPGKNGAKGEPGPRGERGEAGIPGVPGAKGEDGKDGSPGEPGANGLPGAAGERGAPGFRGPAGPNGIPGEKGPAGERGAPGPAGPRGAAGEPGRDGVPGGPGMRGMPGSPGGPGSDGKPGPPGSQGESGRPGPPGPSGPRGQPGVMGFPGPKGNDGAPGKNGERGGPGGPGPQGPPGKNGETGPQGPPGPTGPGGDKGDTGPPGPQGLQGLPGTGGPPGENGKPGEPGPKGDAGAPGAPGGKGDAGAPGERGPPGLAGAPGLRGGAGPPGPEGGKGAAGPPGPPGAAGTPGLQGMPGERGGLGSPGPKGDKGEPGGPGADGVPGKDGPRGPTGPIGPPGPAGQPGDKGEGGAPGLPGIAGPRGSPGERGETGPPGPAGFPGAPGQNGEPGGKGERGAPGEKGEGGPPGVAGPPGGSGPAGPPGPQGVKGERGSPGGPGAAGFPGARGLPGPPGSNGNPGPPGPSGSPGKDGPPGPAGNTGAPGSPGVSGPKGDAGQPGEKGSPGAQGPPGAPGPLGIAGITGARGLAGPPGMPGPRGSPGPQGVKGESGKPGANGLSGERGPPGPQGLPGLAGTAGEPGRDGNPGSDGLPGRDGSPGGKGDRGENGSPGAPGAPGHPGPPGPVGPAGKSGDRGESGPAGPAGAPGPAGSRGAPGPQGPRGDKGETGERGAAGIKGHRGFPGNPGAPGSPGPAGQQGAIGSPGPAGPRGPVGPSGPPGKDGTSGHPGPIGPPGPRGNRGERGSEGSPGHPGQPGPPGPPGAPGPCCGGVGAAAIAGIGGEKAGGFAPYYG
Method: as §1, §2, §3

Measured: binding result

T2 sequence (P02452 162-1218, chain 1 of 2): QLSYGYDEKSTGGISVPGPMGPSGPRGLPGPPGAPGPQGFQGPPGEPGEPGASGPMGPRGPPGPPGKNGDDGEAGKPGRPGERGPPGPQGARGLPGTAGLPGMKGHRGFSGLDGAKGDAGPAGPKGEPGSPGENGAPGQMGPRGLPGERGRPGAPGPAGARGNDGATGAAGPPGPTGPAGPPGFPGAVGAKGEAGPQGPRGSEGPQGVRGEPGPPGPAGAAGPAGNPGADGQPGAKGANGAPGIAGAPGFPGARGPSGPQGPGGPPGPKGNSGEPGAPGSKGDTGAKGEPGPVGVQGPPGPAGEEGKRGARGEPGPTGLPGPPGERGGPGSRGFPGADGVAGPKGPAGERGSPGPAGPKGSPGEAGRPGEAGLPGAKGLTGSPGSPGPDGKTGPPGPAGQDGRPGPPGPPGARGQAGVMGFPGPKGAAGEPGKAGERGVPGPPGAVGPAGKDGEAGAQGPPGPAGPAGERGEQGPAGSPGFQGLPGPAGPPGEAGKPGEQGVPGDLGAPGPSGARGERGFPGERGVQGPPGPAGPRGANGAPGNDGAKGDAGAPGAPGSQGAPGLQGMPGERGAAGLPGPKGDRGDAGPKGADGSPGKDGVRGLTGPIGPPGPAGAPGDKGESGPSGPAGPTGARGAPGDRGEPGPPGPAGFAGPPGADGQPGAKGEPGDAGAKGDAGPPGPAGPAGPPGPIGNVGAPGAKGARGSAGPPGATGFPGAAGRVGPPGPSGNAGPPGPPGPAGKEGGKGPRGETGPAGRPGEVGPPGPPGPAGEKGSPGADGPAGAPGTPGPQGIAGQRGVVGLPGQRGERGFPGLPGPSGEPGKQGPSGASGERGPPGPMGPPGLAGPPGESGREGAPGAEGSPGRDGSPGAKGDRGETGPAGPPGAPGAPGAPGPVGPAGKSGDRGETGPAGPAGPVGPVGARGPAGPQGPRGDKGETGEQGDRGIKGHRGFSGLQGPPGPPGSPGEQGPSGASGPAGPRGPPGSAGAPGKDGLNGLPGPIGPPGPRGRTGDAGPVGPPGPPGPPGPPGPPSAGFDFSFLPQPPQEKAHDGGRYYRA
T2 sequence (P08123 80-1119, chain 2 of 2): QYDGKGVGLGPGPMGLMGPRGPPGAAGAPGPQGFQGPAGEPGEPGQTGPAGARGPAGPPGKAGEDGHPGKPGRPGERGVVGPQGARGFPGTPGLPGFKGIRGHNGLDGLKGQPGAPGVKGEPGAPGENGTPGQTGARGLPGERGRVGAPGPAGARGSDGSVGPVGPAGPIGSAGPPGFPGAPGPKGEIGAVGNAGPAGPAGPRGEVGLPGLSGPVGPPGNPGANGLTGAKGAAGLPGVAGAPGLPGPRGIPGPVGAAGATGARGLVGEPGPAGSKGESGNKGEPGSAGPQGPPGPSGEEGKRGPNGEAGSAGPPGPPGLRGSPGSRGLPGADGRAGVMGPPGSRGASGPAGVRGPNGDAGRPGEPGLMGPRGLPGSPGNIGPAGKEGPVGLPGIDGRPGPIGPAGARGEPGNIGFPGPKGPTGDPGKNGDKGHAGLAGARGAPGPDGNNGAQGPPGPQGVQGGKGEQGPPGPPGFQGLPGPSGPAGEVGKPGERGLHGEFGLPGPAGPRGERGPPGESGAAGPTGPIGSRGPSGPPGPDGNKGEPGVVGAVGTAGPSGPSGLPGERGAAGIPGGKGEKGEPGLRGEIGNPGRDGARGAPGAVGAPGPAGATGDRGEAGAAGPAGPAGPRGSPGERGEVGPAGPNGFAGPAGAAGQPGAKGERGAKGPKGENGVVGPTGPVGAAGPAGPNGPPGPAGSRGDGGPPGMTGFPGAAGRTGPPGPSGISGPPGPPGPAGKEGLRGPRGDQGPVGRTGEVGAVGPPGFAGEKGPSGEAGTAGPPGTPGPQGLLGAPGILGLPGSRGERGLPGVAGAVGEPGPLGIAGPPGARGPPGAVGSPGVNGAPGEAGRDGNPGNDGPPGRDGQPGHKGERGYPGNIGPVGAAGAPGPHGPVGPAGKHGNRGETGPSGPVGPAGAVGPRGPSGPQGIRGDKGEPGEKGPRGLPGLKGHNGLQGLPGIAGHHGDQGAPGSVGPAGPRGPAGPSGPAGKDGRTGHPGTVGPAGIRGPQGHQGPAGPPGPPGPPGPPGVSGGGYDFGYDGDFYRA
T1 sequence (P02458 182-1241 limits assumed): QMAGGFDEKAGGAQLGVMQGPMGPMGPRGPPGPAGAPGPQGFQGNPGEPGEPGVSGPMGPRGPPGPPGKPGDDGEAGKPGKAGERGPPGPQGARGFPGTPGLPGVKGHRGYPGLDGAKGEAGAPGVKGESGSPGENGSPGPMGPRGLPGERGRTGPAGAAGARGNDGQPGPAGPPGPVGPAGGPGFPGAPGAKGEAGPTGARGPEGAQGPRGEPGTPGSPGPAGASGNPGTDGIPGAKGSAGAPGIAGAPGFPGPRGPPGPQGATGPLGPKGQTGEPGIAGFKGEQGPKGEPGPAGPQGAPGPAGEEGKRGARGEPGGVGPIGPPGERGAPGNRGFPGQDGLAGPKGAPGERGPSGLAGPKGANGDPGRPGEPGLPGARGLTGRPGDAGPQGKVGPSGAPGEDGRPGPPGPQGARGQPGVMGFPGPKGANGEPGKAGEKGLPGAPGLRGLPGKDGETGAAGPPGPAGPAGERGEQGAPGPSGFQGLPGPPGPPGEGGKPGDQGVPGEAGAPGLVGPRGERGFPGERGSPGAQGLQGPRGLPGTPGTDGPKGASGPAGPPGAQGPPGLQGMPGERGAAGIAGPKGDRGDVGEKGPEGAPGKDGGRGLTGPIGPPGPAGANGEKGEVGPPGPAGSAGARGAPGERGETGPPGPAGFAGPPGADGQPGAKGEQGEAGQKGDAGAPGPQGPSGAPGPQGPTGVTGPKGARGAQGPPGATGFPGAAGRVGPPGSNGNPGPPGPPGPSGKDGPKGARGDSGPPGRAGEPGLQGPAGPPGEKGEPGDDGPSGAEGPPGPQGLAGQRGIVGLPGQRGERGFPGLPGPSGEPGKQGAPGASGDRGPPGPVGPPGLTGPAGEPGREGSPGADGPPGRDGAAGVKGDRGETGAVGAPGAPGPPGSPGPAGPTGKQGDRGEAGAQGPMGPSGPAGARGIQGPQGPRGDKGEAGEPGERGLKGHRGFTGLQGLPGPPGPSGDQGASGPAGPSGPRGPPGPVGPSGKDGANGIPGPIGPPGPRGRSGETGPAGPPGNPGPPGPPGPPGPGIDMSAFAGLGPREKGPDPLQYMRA

B1: anti-neoepitope antibody 20A10 (antibody, IgG1, V domains shown)
VH: QIQLVQSGPELKEPGETVRISCKASGYTFTKYGINWVKQAPGKGLEWMAWINTYSGMTTYADDFKGRFAFSLETSANTAYLQINHLKNDDTATYFCARSLGYDYGGFAYWGQGTLVTVSA
VL: DVLLTQTPLSLPVSLGDQAFISCRSGQTLVHDNENTYFHWYLQKPGQSPKLLIYKISNRFSGVPDRFSGSGSGTDFTLKISRVEPEDLGIYFCSQNTHVPFTFGSGTKLEIKR
notes: also called HRP-labeled 20A10
no binding: all assays above
